Results as given in US20070082002A1 (IDEC PHARMACEUTICALS, published 2007).

B1: RF-2 human monoclonal antibody to RSV F-protein (antibody, human IgG1, V domains shown)
VH: QVQLQESGPALVKPTQTLTLTCTFSGFSLSTRGMSVNWIRQPPGKALEWLARIDWDDDTFYSASLKTRLSISKDTSKNQVVLRMTNVDPVDTATYFCARASLYDSDSFYLFYHAYWGQGTVVTVSS
VL: DIQMTQSPSSLSASVGDRVTITCRASQSIASYVNWYQQKPGKAPKVLIFASANLVSGVPSRFSGSGSGTVFTLTISNLQPEDFATYFCQQSYTNFSFGQGTKLEIK
notes: Tested as natural human IgG1 kappa, protein A purified from supernatant of the tumor cell line from hu-SPL-SCID mouse #15; The early preparation held at least two antibody populations
B2: RF-1 human monoclonal antibody to RSV F-protein (antibody, human IgG1, V domains shown)
VH: QVQLQESGPVVVKPTETLTLTCTVSGFSLSNPRMGVTWIRQPPGKALEWLGNIFSSDEKSFSPSLKSRLTTSQDTSRSQVVLSLTNVDPVDTATYYCARVGLYDINAYYLYYLDYWGQGTLVTVSS
VL: DIQMTQSPSSLSASVGDRVTITCRAGQRIASYLNWYQHKPGKAPKLLIYAGSNLHRGVPSRFSGGGSGTDFTLTINSLQPEDFATYYCQQAYSTPWTFGPGTKVEIK
notes: Tested as natural human IgG1 kappa, protein A purified from supernatant of the EBV-positive tumor cell line from hu-SPL-SCID mouse #6

Experiments:
[1] = target: T1, RSV fusion (F) protein, affinity purified from HEp-2 cells infected with the Long strain of RSV (respiratory syncytial virus, Long …, UniProt P12568 26-109; P12568 137-574); assay: ELISA, plate coated with purified F-protein, GAH IgG-HRP detection
T1 construct: mature; also called RSV F-protein; soluble F-protein

[2] = target: T1, RSV fusion (F) protein, affinity …; assay: titration micro calorimetry, RF-2 and F-protein in solution
[3] = target: F-protein of RSV RS 6556 (Type B clinical isolate) in infected VERO cells (respiratory syncytial virus, RS 6556 …); assay: cell-based or functional assay
[4] = target: F-protein of RSV MR 144 (Type A) (respiratory syncytial virus, MR 144 …); assay: cell-based or functional assay
[5] = target: F-protein of RSV 18537 (Type B) (respiratory syncytial virus, strain …, UniProt P13843 26-574); assay: cell-based or functional assay
[6] = target: F-protein of RSV RS Long (Type A prototype) in infected VERO cells (respiratory syncytial virus, Long …, UniProt P12568 26-574); assay: cell-based or functional assay
[7] = target: T1, RSV fusion (F) protein, affinity …; assay: plasmon resonance on an IASYS machine, antibody bound covalently, F-protein in solution

T1 sequence (P12568 26-109, chain 1 of 2): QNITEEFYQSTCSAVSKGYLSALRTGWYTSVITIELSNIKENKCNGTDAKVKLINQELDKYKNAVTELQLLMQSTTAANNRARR
T1 sequence (P12568 137-574, chain 2 of 2): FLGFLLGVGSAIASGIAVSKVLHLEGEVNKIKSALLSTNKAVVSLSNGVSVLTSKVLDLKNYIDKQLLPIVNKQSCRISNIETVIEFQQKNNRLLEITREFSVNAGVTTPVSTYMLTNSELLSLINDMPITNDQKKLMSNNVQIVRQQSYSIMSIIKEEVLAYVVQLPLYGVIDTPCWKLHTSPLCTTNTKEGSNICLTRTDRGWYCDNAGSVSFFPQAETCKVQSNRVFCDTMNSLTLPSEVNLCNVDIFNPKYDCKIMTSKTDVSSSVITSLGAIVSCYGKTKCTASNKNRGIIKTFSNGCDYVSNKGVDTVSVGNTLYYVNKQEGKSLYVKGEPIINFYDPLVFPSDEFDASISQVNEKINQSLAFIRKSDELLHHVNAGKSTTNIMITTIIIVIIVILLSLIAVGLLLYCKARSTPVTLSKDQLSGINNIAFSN
Sequence of F-protein of RSV 18537 (Type B) (P13843 26-574): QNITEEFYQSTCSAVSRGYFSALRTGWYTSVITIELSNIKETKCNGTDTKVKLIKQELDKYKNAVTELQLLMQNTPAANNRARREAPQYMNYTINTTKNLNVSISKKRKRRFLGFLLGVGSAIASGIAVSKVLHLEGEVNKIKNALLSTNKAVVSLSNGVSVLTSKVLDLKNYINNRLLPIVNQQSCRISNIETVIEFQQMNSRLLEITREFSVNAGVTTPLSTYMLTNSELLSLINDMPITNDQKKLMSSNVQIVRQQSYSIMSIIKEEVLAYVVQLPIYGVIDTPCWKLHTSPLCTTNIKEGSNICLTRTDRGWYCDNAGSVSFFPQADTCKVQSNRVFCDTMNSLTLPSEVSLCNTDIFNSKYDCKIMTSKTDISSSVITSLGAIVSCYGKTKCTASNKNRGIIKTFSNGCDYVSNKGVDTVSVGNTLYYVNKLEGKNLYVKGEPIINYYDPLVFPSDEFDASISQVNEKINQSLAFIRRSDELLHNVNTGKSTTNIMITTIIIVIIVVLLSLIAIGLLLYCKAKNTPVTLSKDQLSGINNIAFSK
Sequence of F-protein of RSV RS Long (Type A prototype) in infected VERO cells (P12568 26-574): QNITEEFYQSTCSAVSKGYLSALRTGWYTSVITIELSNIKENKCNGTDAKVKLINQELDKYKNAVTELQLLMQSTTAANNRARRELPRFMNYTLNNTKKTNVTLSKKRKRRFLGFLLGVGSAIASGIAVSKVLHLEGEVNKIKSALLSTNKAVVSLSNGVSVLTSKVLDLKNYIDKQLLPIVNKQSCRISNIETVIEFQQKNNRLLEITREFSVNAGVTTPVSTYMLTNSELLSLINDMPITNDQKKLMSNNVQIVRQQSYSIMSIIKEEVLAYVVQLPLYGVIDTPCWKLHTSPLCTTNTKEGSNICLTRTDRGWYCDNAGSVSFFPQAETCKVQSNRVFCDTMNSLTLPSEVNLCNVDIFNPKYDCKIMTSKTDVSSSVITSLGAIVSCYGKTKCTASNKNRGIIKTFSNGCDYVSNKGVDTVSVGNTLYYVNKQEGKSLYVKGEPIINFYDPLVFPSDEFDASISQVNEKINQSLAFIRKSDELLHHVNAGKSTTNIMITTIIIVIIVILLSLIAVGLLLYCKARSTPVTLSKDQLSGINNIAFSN

| Binder | EC50 [1] [µg/mL] | Kd [2] [nM] | Fusion Inhibition activity ED50 titer [3] [µg/mL] | Infection Neutralization Activity ED50 titer [4] [µg/mL] | Infection Neutralization Activity ED50 titer [5] [µg/mL] | Fusion Inhibition activity ED50 titer [6] [µg/mL] | Kd [7] [nM] |
| --- | --- | --- | --- | --- | --- | --- | --- |
| B1 | 0.001 | 2 | 0.4 | 0.008 | 0.012 | 3.3 |  |
| B2 | 0.0006 |  | 0.04 | 0.03 | 0.03 | 0.66 | ~0.1 |
